In US20200407441A1 (I MAB BIOPHARMA US, published 2020):
Blank lines part the entries; values can stand above or below the molecule they belong to.

Experiments:
[1] = biological target: CD47 on human red blood cells (human) (UniProt Q08722); assay: flow cytometry on human RBCs, Donor 1
[2] = biological target: CD47 on human red blood cells (human) (UniProt Q08722); assay: flow cytometry on human RBCs, Donor 2
[3] = biological target: CD47 on human platelets (human) (UniProt Q08722); assay: flow cytometry on human whole blood, gated on CD61 positive platelets, antibody at 10 ug/mL
human CD47 on Raji cells [4] = biological target: T1, human CD47 on Raji cells (human, UniProt Q08722 19-323); assay: flow cytometry on Raji cells, APC anti-human Fc
T1 construct: whole, on cells; also called CD47+ Raji cells; CD47-bearing Raji cells
Experimental: (§1) Then, the cells were washed with PBS three times, followed by incubation with APC-labeled anti-human Fc specific antibody (Invitrogen) at 4° C. for 30 minutes. Binding was measured using a FACSCanto (Becton-Dickinson).

CD47 (form not stated) [5] = biological target: T2, CD47 (form not stated) (UniProt Q08722 19-139, limits assumed); assay: Biacore
human CD47 on Raji cells [6] = biological target: T1, human CD47 on Raji cells; assay: flow cytometry on Raji cells
Experimental: as §1

[7] = biological target: T3, Tag1-CD47 (Cisbio HTRF kit) (UniProt Q08722 19-139); assay: HTRF competition: blocks Tag1-CD47 / Tag2-SIRPα interaction (Cisbio)
T3 construct: Kit reagent
Experimental: (§2) The mixture was incubated at 25° C. for 15 minutes, and further incubated at 25° C. for 1 hour after conjugates pre-mixture was added. Then the plate sealer was removed and fluorescence data was read on a PerkinElmer Envision plate reader.

[8] = biological target: T4, biotinylated human CD47-ECD protein (Acrobiosystems) (human, UniProt Q08722 19-139, biotinylated (site not stated)); assay: ELISA, biotinylated CD47 coated at 1 ug/mL, anti-human Fc HRP
T4 construct: extracellular domain; Bought reagent; also called biotinylated CD47 protein; monomeric CD47-ECD

CD47 (form not stated) [9] = biological target: T2, CD47 (form not stated); assay: BiaCore (SPR); format not stated
[10] = biological target: T5, recombinant human CD47/mouse Fc fusion protein (Acrobiosystems) (human, UniProt Q08722 19-139); assay: ELISA, CD47/mouse Fc coated at 1 ug/ml, anti-human Fc HRP
T5 construct: extracellular domain; Bought reagent; also called dimeric CD47-ECD; not shown: Mouse Fc

[11] = biological target: T6, recombinant human CD47-Fc fusion protein (Acrobiosystems) (human, UniProt Q08722 19-139); assay: blocking ELISA, CD47-Fc coated, blocked ligand SIRPa-His at 1 ug/mL, anti-His HRP
T6 construct: extracellular domain; also called recombinant CD47-Fc fusion protein; not shown: Fc

[12] = biological target: T5, recombinant human CD47/mouse Fc fusion …; assay: ELISA on recombinant CD47-ECD (FIG. 2b, dimeric CD47-ECD)
Experimental: CD47/mouse Fc fusion protein (Acrobiosystems) was coated at 1 ug/ml in PBS onto microtiter plates for 2 hours at RT. After coating of antigen the wells were blocked with PBS/0.05% Tween (PBST) with 1% BSA for 1 hour at RT. After washing of the wells with PBST, different concentrations of anti-CD47 antibodies were added to the well and incubated for 1 at RT. For detection of the binding antibodies, the HRP conjugated secondary antibodies against human Fc (Jackson Immuno Research) were added followed by the addition of fluorogenic substrates (Roche). Between all incubation steps, the wells of the plate were washed with PBST three times. Fluorescence was measured in a TECAN Spectrafluor plate reader.

[13] = biological target: T6, recombinant human CD47-Fc fusion …; assay: competition ELISA: blocks SIRPα-His binding to coated CD47-Fc
Experimental: Recombinant CD47-Fc fusion protein (Acrobiosystems) was coated at 1 ug/ml in PBS onto microtiter plates for 16 hours at 4° C. […] Plates were subsequently washed three times and incubated with an HRP-conjugated anti-His secondary antibody for 1 h at RT.

CD47 (form not stated) [14] = biological target: T2, CD47 (form not stated); assay: Biacore (SPR); format not stated
human CD47 on Raji cells [15] = biological target: T1, human CD47 on Raji cells; assay: flow cytometry on Raji cells, MFI
[16] = biological target: T3, Tag1-CD47 (Cisbio HTRF kit); assay: HTRF CD47-SIRPa binding assay (ratio 665 nm / 615 nm), blocked ligand Tag2-SIRPa
Experimental: as §2

human CD47 on Raji cells [17] = biological target: T1, human CD47 on Raji cells; assay: flow cytometry on Raji cells; CD47-bearing Raji cells
CD47 (form not stated) [18] = biological target: T2, CD47 (form not stated); assay: CD47-SIRPα blocking assay; format not stated; blocking of CD47 binding to SIRPα
human CD47-ECD = biological target: T7, human CD47-ECD (human, UniProt Q08722 19-139, limits assumed, N-terminal pyroglutamate (seen in the crystal structure)); assay: ELISA on recombinant CD47-ECD; recombinant CD47-ECD
T7 construct: extracellular domain; also called recombinant CD47-ECD; CD47 ECD protein

B1: CD47 antibody 1F8 (antibody, human IgG1, V domains shown)
VH: KVQLVESGGGLVKPGGSLRLSCAASGFTFSNAWMNWVRQAPGKGLEWVGRIKRKTDGETTDYAAPVKGRFSISRDDSKNTLYLQMNSLKTEDTAVYYCAGSNRAFDIWGQGTMVTVSA
VL: DIVMTQSPDSLAVSLGERATINCKSSQSVLYSSNNRNYLAWYQQKPGQPPKLLINQASTRASGVPDRFSGSGSGTEFTLIISSLHAEDVAIYYCQQYYTPPLAFGGGTKLEIK
percent of CD61+ platelets in the binding gate [3]: 0.77% | percent of cells in the binding gate [1]: 0.065% | EC50 (read off the curve) (human CD47 on Raji cells [4]): ~0.2 µg/mL | kon (CD47 (form not stated) [5]): 375000 M⁻¹ s⁻¹ | EC50 (human CD47 on Raji cells [6]): 2950 pM | IC50 [7]: 1600 pM | EC50 (read off the curve) [8]: ~0.009 µg/mL | Kd (CD47 (form not stated) [9]): 2800 pM | koff (CD47 (form not stated) [9]): 0.00104 s⁻¹ | EC50 (read off the curve) [10]: ~0.006 µg/mL | IC50 (read off the curve) [11]: ~0.3 µg/mL | EC50 [12]: 38 pM | percent of cells in the binding gate [2]: 0.076% | IC50 [13]: 780 pM

B2: CD47 antibody 13H3 (antibody, V domains shown)
VH: KVQLVESGGGLVKPGGSLRLSCAASGLTFERAWMNWVRQAPGKGLEWVGRIKRKTDGETTDYAAPVKGRFSISRDDSKNTLYLQMNSLKTEDTAVYYCAGSNRAFDIWGQGTMVTVSA
VL: DIVMTQSPDSLAVSLGERATINCKSSQSVLYAGNNRNYLAWYQQKPGQPPKLLINQASTRASGVPDRFSGSGSGTEFTLIISSLQAEDVAIYYCQQYYTPPLAFGGGTKLEIK
Kd (CD47 (form not stated) [14]): 7810 pM | koff (CD47 (form not stated) [14]): 0.00282 s⁻¹ | kon (CD47 (form not stated) [14]): 361000 M⁻¹ s⁻¹ | EC50 (human CD47 on Raji cells [15]): 1070 pM | Kd (CD47 (form not stated) [5]): 460 pM | koff (CD47 (form not stated) [5]): 0.000247 s⁻¹ | kon (CD47 (form not stated) [5]): 533000 M⁻¹ s⁻¹ | EC50 (human CD47 on Raji cells [6]): 1060 pM | IC50 [16]: 360 pM | EC50 [12]: 45 pM | IC50 [13]: 200 pM

Results, then the molecule that gave them:

percent of cells in the binding gate [1]: 0.079% | percent of cells in the binding gate [2]: 0.018%
Molecule: IgG (antibody)

EC50 (human CD47 on Raji cells [17]): 830 pM | EC50 (CD47 (form not stated) [18]): 300 pM | EC50 (human CD47-ECD): 270 pM
B3: CD47 antibody 34C5 (antibody, V domains shown)
VH: QVQLVQSGAEVKKPGSSVKVSCKASGYTFSSYYMHWVRQAPGQGLEWMGEINPNNARINFNEKFKTRVTLTVDKSTSTAYMELSSLRSEDTAVYYCTRGYYRYGAWFGYWGQGTLVTVSS
VL: DIQMTQSPSSLSASVGDRVTITCRASQDISDYLNWYQQKPGKAPKLLIYYISRLHSGVPSRFSGSGSGTDYTLTISSLQPEDFATYYCQQGHTLPWTFGGGTKVEIK
